This data set has as its system Escherichia coli TOP10. In words: shrunken log2 fold change of peptide-encoding DNA abundance (4.5 h post-induction vs induction); higher = less antimicrobial activity (less host growth inhibition). To be noted: time post-induction: 4.5 h; library: site-saturation at positions 5, 18, 19, 20.
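Note: peptides expressed intracellularly from a pBAD plasmid library in pooled LB shake-flask culture, induced with 0.3% L-arabinose, DNA abundance read by NGS, three biological replicates, DESeq2 with apeglm shrinkage.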

As for RRIRARPPRLPRPRPRPYWHPRP, the “shrunken log2 fold change” value is -0.241.
Regarding RRIRTRPPRLPRPRPRPWQQPRP, the “shrunken log2 fold change” value was -0.0121.
With RRIRARPPRLPRPRPRPFAFPRP, the “shrunken log2 fold change” value is 0.552.
On to RRIRWRPPRLPRPRPRPGIDPRP, for which the “shrunken log2 fold change” value is 0.117.
As for RRIRKRPPRLPRPRPRPERHPRP, the “shrunken log2 fold change” value came to 0.105.
Under RRIRKRPPRLPRPRPRPREFPRP stands 0.607; under RRIRQRPPRLPRPRPRPLFAPRP, 0.013; under RRIRTRPPRLPRPRPRPESFPRP, -0.47.
Turning to RRIRRRPPRLPRPRPRPPNTPRP, the “shrunken log2 fold change” value came out at 0.884.
Under RRIRKRPPRLPRPRPRPSQAPRP stands -0.0142.
Under RRIRIRPPRLPRPRPRPWITPRP stands -0.917; under RRIRKRPPRLPRPRPRPPTFPRP, 0.149; under RRIRFRPPRLPRPRPRPDLIPRP, -0.0121.
With RRIRGRPPRLPRPRPRPYPKPRP the figure was 0.161; with RRIRERPPRLPRPRPRPNGFPRP, 0.0354; with RRIRTRPPRLPRPRPRPDSMPRP, 0.0768.
On to RRIRCRPPRLPRPRPRPTMIPRP, for which the “shrunken log2 fold change” value is -0.922.
As to RRIRCRPPRLPRPRPRPVDEPRP, the “shrunken log2 fold change” value turned out to be 2.09.
For RRIRPRPPRLPRPRPRPHDAPRP, the “shrunken log2 fold change” value is 0.0201.
With RRIRCRPPRLPRPRPRPPHMPRP the figure was 1.56; with RRIRCRPPRLPRPRPRPITKPRP, -0.297.
With RRIRTRPPRLPRPRPRPERPPRP the figure was 0.267.
Under RRIRIRPPRLPRPRPRPEIQPRP stands -0.171.
RRIRKRPPRLPRPRPRPCNGPRP: the “shrunken log2 fold change” value is -0.0184.
Under RRIRDRPPRLPRPRPRPECSPRP stands 0.0314; under RRIRYRPPRLPRPRPRPTYLPRP, -0.824; under RRIRSRPPRLPRPRPRPKEYPRP, 0.167.
Under RRIRFRPPRLPRPRPRPMLNPRP stands -0.574; under RRIRFRPPRLPRPRPRPNHAPRP, 0.0222; under RRIRTRPPRLPRPRPRPKTTPRP, 0.0871.
Under RRIRMRPPRLPRPRPRPGPKPRP stands 1.81; under RRIRMRPPRLPRPRPRPRCYPRP, -0.00529; under RRIRNRPPRLPRPRPRPVLAPRP, 0.093.
As for RRIRTRPPRLPRPRPRPRKQPRP, the “shrunken log2 fold change” value was 0.0743.
Regarding RRIRPRPPRLPRPRPRPYVLPRP, the “shrunken log2 fold change” value was -0.519.
Under RRIRSRPPRLPRPRPRPIPGPRP stands -0.0336.
On to RRIRSRPPRLPRPRPRPWYIPRP, for which the “shrunken log2 fold change” value is -0.314.
With RRIRWRPPRLPRPRPRPETKPRP, the “shrunken log2 fold change” value stood at 0.285.
Under RRIRVRPPRLPRPRPRPYDLPRP stands -0.121; under RRIRIRPPRLPRPRPRPWNTPRP, -0.256.
With RRIRLRPPRLPRPRPRPKCHPRP the figure was -0.387; with RRIRARPPRLPRPRPRPQEDPRP, 0.124; with RRIRPRPPRLPRPRPRPGSKPRP, -0.0791.
Turning to RRIRFRPPRLPRPRPRPFTNPRP, the “shrunken log2 fold change” value was -0.125.
Regarding RRIRHRPPRLPRPRPRPWRWPRP, the “shrunken log2 fold change” value amounted to 0.16.
With RRIRIRPPRLPRPRPRPTRAPRP the figure was 0.561; with RRIRERPPRLPRPRPRPKWKPRP, -0.0193; with RRIRTRPPRLPRPRPRPRLVPRP, 0.0412.
With RRIRWRPPRLPRPRPRPVCIPRP the figure was 0.12; with RRIRTRPPRLPRPRPRPYKCPRP, -0.372; with RRIRNRPPRLPRPRPRPLHQPRP, -0.112.
With RRIRRRPPRLPRPRPRPEKVPRP the figure was 0.448; with RRIRYRPPRLPRPRPRPNSSPRP, 0.0291; with RRIRRRPPRLPRPRPRPKWIPRP, -0.096.
As for RRIRPRPPRLPRPRPRPWREPRP, the “shrunken log2 fold change” value is -0.00316.
In the case of RRIRHRPPRLPRPRPRPYNIPRP, the “shrunken log2 fold change” value was -0.244.
For the sequence RRIRWRPPRLPRPRPRPQSAPRP, the “shrunken log2 fold change” value was found to be 0.372.
With RRIRWRPPRLPRPRPRPFEAPRP the figure was 0.253; with RRIRERPPRLPRPRPRPFGRPRP, -0.0419; with RRIRIRPPRLPRPRPRPENKPRP, -0.663.
RRIRLRPPRLPRPRPRPDAQPRP: the “shrunken log2 fold change” value amounted to 0.34.
In the case of RRIRPRPPRLPRPRPRPEQSPRP, the “shrunken log2 fold change” value is 0.289.
With RRIRPRPPRLPRPRPRPQLPPRP the figure was 0.0534; with RRIRVRPPRLPRPRPRPKDKPRP, -0.13; with RRIRIRPPRLPRPRPRPLDSPRP, -0.0212.
With RRIRLRPPRLPRPRPRPGERPRP the figure was 0.33; with RRIRHRPPRLPRPRPRPGGLPRP, 0.117.
Under RRIRRRPPRLPRPRPRPFKSPRP stands -0.336.
RRIRFRPPRLPRPRPRPTRQPRP: the “shrunken log2 fold change” value turned out to be 0.298.
With RRIRTRPPRLPRPRPRPGKCPRP the figure was 0.0114; with RRIRWRPPRLPRPRPRPVFGPRP, 0.159; with RRIRARPPRLPRPRPRPVMRPRP, 0.292.
Consider RRIRERPPRLPRPRPRPDPIPRP, for which the “shrunken log2 fold change” value is -0.224.
In the case of RRIRRRPPRLPRPRPRPIDHPRP, the “shrunken log2 fold change” value is -0.12.
With RRIRERPPRLPRPRPRPCWSPRP the figure was 0.0767; with RRIRMRPPRLPRPRPRPHGHPRP, 0.256.
With RRIRMRPPRLPRPRPRPPAFPRP the figure was 0.82.
Take RRIRTRPPRLPRPRPRPADKPRP: the “shrunken log2 fold change” value was -0.257.
For the sequence RRIRVRPPRLPRPRPRPIGKPRP, the “shrunken log2 fold change” value is -0.129.
RRIRPRPPRLPRPRPRPQHYPRP: the “shrunken log2 fold change” value is -0.675.
Under RRIRFRPPRLPRPRPRPHPEPRP stands -0.00858.
As to RRIRQRPPRLPRPRPRPKADPRP, the “shrunken log2 fold change” value was determined as 0.143.
As for RRIRWRPPRLPRPRPRPIWLPRP, the “shrunken log2 fold change” value amounted to 0.211.
Under RRIRIRPPRLPRPRPRPNYFPRP stands -0.749.
With RRIRWRPPRLPRPRPRPGLPPRP the figure was 0.288; with RRIRFRPPRLPRPRPRPTGPPRP, 0.445; with RRIRSRPPRLPRPRPRPTGLPRP, 0.127.
On to RRIRARPPRLPRPRPRPFKCPRP, for which the “shrunken log2 fold change” value was -0.0202.
With RRIRSRPPRLPRPRPRPDTHPRP the figure was -0.448; with RRIRWRPPRLPRPRPRPVPIPRP, -0.0691; with RRIRDRPPRLPRPRPRPTIAPRP, 0.521.
RRIRHRPPRLPRPRPRPCFAPRP: the “shrunken log2 fold change” value was 0.0434.
With RRIRKRPPRLPRPRPRPDNVPRP the figure was -0.0064; with RRIRVRPPRLPRPRPRPDYDPRP, 0.00442.
In the case of RRIRARPPRLPRPRPRPKFDPRP, the “shrunken log2 fold change” value came out at 0.376.
As to RRIRFRPPRLPRPRPRPGWEPRP, the “shrunken log2 fold change” value turned out to be 0.0875.
RRIRWRPPRLPRPRPRPHRIPRP: the “shrunken log2 fold change” value is -0.225.
With RRIRRRPPRLPRPRPRPQRGPRP the figure was 0.399; with RRIRVRPPRLPRPRPRPQKQPRP, -0.376.
Under RRIRCRPPRLPRPRPRPVEAPRP stands 0.338; under RRIRYRPPRLPRPRPRPLFEPRP, -0.414; under RRIRQRPPRLPRPRPRPMWPPRP, 0.269.
With RRIRFRPPRLPRPRPRPDPQPRP the figure was 0.0361; with RRIRQRPPRLPRPRPRPSCHPRP, -0.253; with RRIRWRPPRLPRPRPRPMMFPRP, -0.117.
Turning to RRIRCRPPRLPRPRPRPYAWPRP, the “shrunken log2 fold change” value is -0.553.
Take RRIRGRPPRLPRPRPRPCTIPRP: the “shrunken log2 fold change” value worked out at 0.166.
Under RRIRYRPPRLPRPRPRPALAPRP stands 0.194.
Turning to RRIRTRPPRLPRPRPRPMGCPRP, the “shrunken log2 fold change” value was -0.145.
Under RRIRKRPPRLPRPRPRPMLQPRP stands 0.122; under RRIRTRPPRLPRPRPRPEQCPRP, -0.01; under RRIRARPPRLPRPRPRPYLAPRP, -0.594.
Under RRIRTRPPRLPRPRPRPNNLPRP stands -0.252.
For the sequence RRIRFRPPRLPRPRPRPWCYPRP, the “shrunken log2 fold change” value was -0.751.
Under RRIRLRPPRLPRPRPRPMYCPRP stands -0.0105; under RRIRYRPPRLPRPRPRPFEKPRP, 0.021.
Regarding RRIRPRPPRLPRPRPRPFEIPRP, the “shrunken log2 fold change” value was -0.0325.
As to RRIRNRPPRLPRPRPRPQNAPRP, the “shrunken log2 fold change” value was -0.011.
On to RRIRCRPPRLPRPRPRPPDWPRP, for which the “shrunken log2 fold change” value is 0.416.
Under RRIRIRPPRLPRPRPRPFMTPRP stands -1.01; under RRIRMRPPRLPRPRPRPSVVPRP, 0.124.
Under RRIRPRPPRLPRPRPRPDDNPRP stands -0.0275; under RRIRARPPRLPRPRPRPRRMPRP, 0.551; under RRIRRRPPRLPRPRPRPPLWPRP, 0.883.
With RRIRWRPPRLPRPRPRPNYPPRP the figure was -0.157.
